Results published in PMC9279372.

biological target: DEIP1-cYFP fusion protein (Arabidopsis thaliana); assay: split reporter (BiFC, NanoBiT); BiFC with vector pBIFCt-2in1-CC in N. benthamiana, Agrobacterium co-infiltration with p19; protoplasts isolated three days after infiltration; YFP and RFP fluorescence by confocal microscopy; 80 protoplasts in two independent experiments for each interaction
Sequence (main, as listed by the source): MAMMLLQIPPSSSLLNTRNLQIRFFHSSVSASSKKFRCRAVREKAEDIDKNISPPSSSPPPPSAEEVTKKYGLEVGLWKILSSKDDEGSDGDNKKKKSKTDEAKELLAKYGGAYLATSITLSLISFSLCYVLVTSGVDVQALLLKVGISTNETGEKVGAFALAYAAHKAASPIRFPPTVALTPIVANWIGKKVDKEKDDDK

Question: How did the percent of transfected protoplasts with YFP fluorescence turn out when “DEIP1-cYFP fusion protein (natural protein)” was run?
Answer: 54%

Question: For “PetA with the pea RBCS chloroplast transit peptide and C-terminal nYFP (from UniProt P56771 36-320)”, which percent of transfected protoplasts with YFP fluorescence is on record?
Answer: 30%

Question: Which percent of transfected protoplasts with YFP fluorescence does the source give for “PetB with the pea RBCS chloroplast transit peptide and C-terminal nYFP (from UniProt P56773 1-215)” here?
Answer: 28%

Question: For “PetD with the pea RBCS chloroplast transit peptide and C-terminal nYFP (from UniProt P56774 1-160)”, which percent of transfected protoplasts with YFP fluorescence is on record?
Answer: 17%
